# How the values were obtained:
# [1] = molecular target: MA (unmyristoylated matrix) (HIV-1, UniProt P12493 2-132); test: fluorescence anisotropy
# [2] = molecular target: MyrMA (myristoylated matrix) (HIV-1, UniProt P12493 2-132); test: fluorescence anisotropy
binder,measurement,setting,value
GGACAGGAAUUAAUAGUAGCUGUCC (structured_RNA) [FITC-Sel25],Kd,[1],1030 ± 80 nM
same,Kd,[2],813 ± 74 nM

# From PMC3139429
